Laboratory results from patent US20180258140A1, “NEW DODECAPEPTIDES AND MICROCAPSULES FUNCTIONALISED WITH THEM TARGETED TO FIBROBLASTS” (Infinitec Activos, S.L., priority 2015, published 2018).
*: point of attachment. Palmitoyl = CCCCCCCCCCCCCCCC(=O)*

B1: Peptide 1: Palm-Lys-Phe-Asn-Leu-Pro-Leu-Gly-Asn-Tyr-Lys-Lys-Pro-NH2 (peptide)
peptide: Palmitoyl-KFNLPLGNYKKP-NH2
SMILES: CCCCCCCCCCCCCCCC(=O)N[C@@H](CCCCN)C(=O)N[C@@H](Cc1ccccc1)C(=O)N[C@@H](CC(N)=O)C(=O)N[C@@H](CC(C)C)C(=O)N1CCC[C@H]1C(=O)N[C@@H](CC(C)C)C(=O)NCC(=O)N[C@@H](CC(N)=O)C(=O)N[C@@H](Cc1ccc(O)cc1)C(=O)N[C@@H](CCCCN)C(=O)N[C@@H](CCCCN)C(=O)N1CCC[C@H]1C(N)=O
B2: Peptide 3: Palm-Lys-Phe-Ala-Leu-Pro-Leu-Gly-Asn-Tyr-Lys-Lys-Pro-NH2 (peptide)
peptide: Palmitoyl-KFALPLGNYKKP-NH2
SMILES: CCCCCCCCCCCCCCCC(=O)N[C@@H](CCCCN)C(=O)N[C@@H](Cc1ccccc1)C(=O)N[C@@H](C)C(=O)N[C@@H](CC(C)C)C(=O)N1CCC[C@H]1C(=O)N[C@@H](CC(C)C)C(=O)NCC(=O)N[C@@H](CC(N)=O)C(=O)N[C@@H](Cc1ccc(O)cc1)C(=O)N[C@@H](CCCCN)C(=O)N[C@@H](CCCCN)C(=O)N1CCC[C@H]1C(N)=O
B3: Peptide 4: Palm-Lys-Phe-Asn-Ala-Pro-Leu-Gly-Asn-Tyr-Lys-Lys-Pro-NH2 (peptide)
peptide: Palmitoyl-KFNAPLGNYKKP-NH2
SMILES: CCCCCCCCCCCCCCCC(=O)N[C@@H](CCCCN)C(=O)N[C@@H](Cc1ccccc1)C(=O)N[C@@H](CC(N)=O)C(=O)N[C@@H](C)C(=O)N1CCC[C@H]1C(=O)N[C@@H](CC(C)C)C(=O)NCC(=O)N[C@@H](CC(N)=O)C(=O)N[C@@H](Cc1ccc(O)cc1)C(=O)N[C@@H](CCCCN)C(=O)N[C@@H](CCCCN)C(=O)N1CCC[C@H]1C(N)=O
B4: Peptide 5: Palm-Lys-Phe-Asn-Leu-Ala-Leu-Gly-Asn-Tyr-Lys-Lys-Pro-NH2 (peptide)
peptide: Palmitoyl-KFNLALGNYKKP-NH2
SMILES: CCCCCCCCCCCCCCCC(=O)N[C@@H](CCCCN)C(=O)N[C@@H](Cc1ccccc1)C(=O)N[C@@H](CC(N)=O)C(=O)N[C@@H](CC(C)C)C(=O)N[C@@H](C)C(=O)N[C@@H](CC(C)C)C(=O)NCC(=O)N[C@@H](CC(N)=O)C(=O)N[C@@H](Cc1ccc(O)cc1)C(=O)N[C@@H](CCCCN)C(=O)N[C@@H](CCCCN)C(=O)N1CCC[C@H]1C(N)=O
B5: Peptide 6: Palm-Lys-Phe-Asn-Leu-Pro-Ala-Gly-Asn-Tyr-Lys-Lys-Pro-NH2 (peptide)
peptide: Palmitoyl-KFNLPAGNYKKP-NH2
SMILES: CCCCCCCCCCCCCCCC(=O)N[C@@H](CCCCN)C(=O)N[C@@H](Cc1ccccc1)C(=O)N[C@@H](CC(N)=O)C(=O)N[C@@H](CC(C)C)C(=O)N1CCC[C@H]1C(=O)N[C@@H](C)C(=O)NCC(=O)N[C@@H](CC(N)=O)C(=O)N[C@@H](Cc1ccc(O)cc1)C(=O)N[C@@H](CCCCN)C(=O)N[C@@H](CCCCN)C(=O)N1CCC[C@H]1C(N)=O
B6: Peptide 7: Palm-Lys-Phe-Asn-Leu-Pro-Leu-Ala-Asn-Tyr-Lys-Lys-Pro-NH2 (peptide)
peptide: Palmitoyl-KFNLPLANYKKP-NH2
SMILES: CCCCCCCCCCCCCCCC(=O)N[C@@H](CCCCN)C(=O)N[C@@H](Cc1ccccc1)C(=O)N[C@@H](CC(N)=O)C(=O)N[C@@H](CC(C)C)C(=O)N1CCC[C@H]1C(=O)N[C@@H](CC(C)C)C(=O)N[C@@H](C)C(=O)N[C@@H](CC(N)=O)C(=O)N[C@@H](Cc1ccc(O)cc1)C(=O)N[C@@H](CCCCN)C(=O)N[C@@H](CCCCN)C(=O)N1CCC[C@H]1C(N)=O
B7: Peptide 8: Palm-Lys-Phe-Asn-Leu-Pro-Leu-Gly-Ala-Tyr-Lys-Lys-Pro-NH2 (peptide)
peptide: Palmitoyl-KFNLPLGAYKKP-NH2
SMILES: CCCCCCCCCCCCCCCC(=O)N[C@@H](CCCCN)C(=O)N[C@@H](Cc1ccccc1)C(=O)N[C@@H](CC(N)=O)C(=O)N[C@@H](CC(C)C)C(=O)N1CCC[C@H]1C(=O)N[C@@H](CC(C)C)C(=O)NCC(=O)N[C@@H](C)C(=O)N[C@@H](Cc1ccc(O)cc1)C(=O)N[C@@H](CCCCN)C(=O)N[C@@H](CCCCN)C(=O)N1CCC[C@H]1C(N)=O
B8: Peptide 9: Palm-Lys-Phe-Asn-Leu-Pro-Leu-Gly-Asn-Ala-Lys-Lys-Pro-NH2 (peptide)
peptide: Palmitoyl-KFNLPLGNAKKP-NH2
SMILES: CCCCCCCCCCCCCCCC(=O)N[C@@H](CCCCN)C(=O)N[C@@H](Cc1ccccc1)C(=O)N[C@@H](CC(N)=O)C(=O)N[C@@H](CC(C)C)C(=O)N1CCC[C@H]1C(=O)N[C@@H](CC(C)C)C(=O)NCC(=O)N[C@@H](CC(N)=O)C(=O)N[C@@H](C)C(=O)N[C@@H](CCCCN)C(=O)N[C@@H](CCCCN)C(=O)N1CCC[C@H]1C(N)=O
B9: Peptide 10: Palm-Lys-Phe-Asn-Leu-Pro-Leu-Gly-Asn-Tyr-Ala-Lys-Pro-NH2 (peptide)
peptide: Palmitoyl-KFNLPLGNYAKP-NH2
SMILES: CCCCCCCCCCCCCCCC(=O)N[C@@H](CCCCN)C(=O)N[C@@H](Cc1ccccc1)C(=O)N[C@@H](CC(N)=O)C(=O)N[C@@H](CC(C)C)C(=O)N1CCC[C@H]1C(=O)N[C@@H](CC(C)C)C(=O)NCC(=O)N[C@@H](CC(N)=O)C(=O)N[C@@H](Cc1ccc(O)cc1)C(=O)N[C@@H](C)C(=O)N[C@@H](CCCCN)C(=O)N1CCC[C@H]1C(N)=O
B10: Peptide 11: Palm-Lys-Phe-Asn-Leu-Pro-Leu-Gly-Asn-Tyr-Lys-Ala-Pro-NH2 (peptide)
peptide: Palmitoyl-KFNLPLGNYKAP-NH2
SMILES: CCCCCCCCCCCCCCCC(=O)N[C@@H](CCCCN)C(=O)N[C@@H](Cc1ccccc1)C(=O)N[C@@H](CC(N)=O)C(=O)N[C@@H](CC(C)C)C(=O)N1CCC[C@H]1C(=O)N[C@@H](CC(C)C)C(=O)NCC(=O)N[C@@H](CC(N)=O)C(=O)N[C@@H](Cc1ccc(O)cc1)C(=O)N[C@@H](CCCCN)C(=O)N[C@@H](C)C(=O)N1CCC[C@H]1C(N)=O
B11: Peptide 12: Palm-Lys-Phe-Asn-Leu-Pro-Leu-Gly-Asn-Tyr-Lys-Lys-Ala-NH2 (peptide)
peptide: Palmitoyl-KFNLPLGNYKKA-NH2
SMILES: CCCCCCCCCCCCCCCC(=O)N[C@@H](CCCCN)C(=O)N[C@@H](Cc1ccccc1)C(=O)N[C@@H](CC(N)=O)C(=O)N[C@@H](CC(C)C)C(=O)N1CCC[C@H]1C(=O)N[C@@H](CC(C)C)C(=O)NCC(=O)N[C@@H](CC(N)=O)C(=O)N[C@@H](Cc1ccc(O)cc1)C(=O)N[C@@H](CCCCN)C(=O)N[C@@H](CCCCN)C(=O)N[C@@H](C)C(N)=O
B12: Peptide 2: Palm-Lys-Ala-Asn-Leu-Pro-Leu-Gly-Asn-Tyr-Lys-Lys-Pro-NH2 (peptide)
peptide: Palmitoyl-KANLPLGNYKKP-NH2
SMILES: CCCCCCCCCCCCCCCC(=O)N[C@@H](CCCCN)C(=O)N[C@@H](C)C(=O)N[C@@H](CC(N)=O)C(=O)N[C@@H](CC(C)C)C(=O)N1CCC[C@H]1C(=O)N[C@@H](CC(C)C)C(=O)NCC(=O)N[C@@H](CC(N)=O)C(=O)N[C@@H](Cc1ccc(O)cc1)C(=O)N[C@@H](CCCCN)C(=O)N[C@@H](CCCCN)C(=O)N1CCC[C@H]1C(N)=O

The molecules below were run against FGFR2 Kinase (Homo sapiens, UniProt P21802) (assay: FGFR2 kinase inhibition). Conditions: percent inhibition of control enzyme activity; test concentration not given.
Format: biochemical
Method: [The source words this procedure for another target and reports this target under the same test.] Evaluation of the effects of the dodecapeptides of the invention on the activity of the human FGFR1 kinase were quantified by measuring the phosphorylation of the substrate Ulight-CAGAGAIETDKEYYTVKD (JAK1) using a human recombinant enzyme expressed in insect cells and the LANCE® detection method using the protocol described below:
The peptide to be tested, the reference compound or water (control) are mixed with the enzyme (0.252 ng) in a buffer containing 40 mM Hepes/Tris (pH 7.4), 0.8 mM EGTA/Tris, 8 mM MgCl2, 1.6 mM DTT and 0.008% Tween 20 (For control basal measurements, the enzyme is omitted from the reaction mixture). Thereafter, the reaction is initiated by adding 100 nM of the substrate Ulight-CAGAGAIETDKEYYTVKD (SEQ ID NO: 13) (JAK-1 peptide) and 100 μM ATP, and the mixture is incubated for 60 min at room temperature. Following incubation, the reaction is stopped by adding 13 mM EDTA. After 5 min, the anti-phospho-PT66 antibody labeled with europium chelate (EU-W1024-labeled Anti-Phosphotyrosine Antibody PT66, from Perkin Elmer) is added. After 60 more min, the fluorescence transfer is measured at λex=337 nm, λem=620 nm and λem=665 nm using a microplate reader (Envision, Perkin Elmer).
The enzyme activity is determined by dividing the signal measured at 665 nm by that measured at 620 nm (ratio). The results are expressed as a percent inhibition of the control enzyme activity.
The standard inhibitory reference compound is staurosporine, which is tested in each experiment at several concentrations to obtain an inhibition curve from which its IC50 value is calculated.
Results showing an inhibition (or stimulation for assays run in basal conditions) higher than 20% are considered to represent significant effects of the peptides of the invention.

Sequence of FGFR2 Kinase (P21802 22-821): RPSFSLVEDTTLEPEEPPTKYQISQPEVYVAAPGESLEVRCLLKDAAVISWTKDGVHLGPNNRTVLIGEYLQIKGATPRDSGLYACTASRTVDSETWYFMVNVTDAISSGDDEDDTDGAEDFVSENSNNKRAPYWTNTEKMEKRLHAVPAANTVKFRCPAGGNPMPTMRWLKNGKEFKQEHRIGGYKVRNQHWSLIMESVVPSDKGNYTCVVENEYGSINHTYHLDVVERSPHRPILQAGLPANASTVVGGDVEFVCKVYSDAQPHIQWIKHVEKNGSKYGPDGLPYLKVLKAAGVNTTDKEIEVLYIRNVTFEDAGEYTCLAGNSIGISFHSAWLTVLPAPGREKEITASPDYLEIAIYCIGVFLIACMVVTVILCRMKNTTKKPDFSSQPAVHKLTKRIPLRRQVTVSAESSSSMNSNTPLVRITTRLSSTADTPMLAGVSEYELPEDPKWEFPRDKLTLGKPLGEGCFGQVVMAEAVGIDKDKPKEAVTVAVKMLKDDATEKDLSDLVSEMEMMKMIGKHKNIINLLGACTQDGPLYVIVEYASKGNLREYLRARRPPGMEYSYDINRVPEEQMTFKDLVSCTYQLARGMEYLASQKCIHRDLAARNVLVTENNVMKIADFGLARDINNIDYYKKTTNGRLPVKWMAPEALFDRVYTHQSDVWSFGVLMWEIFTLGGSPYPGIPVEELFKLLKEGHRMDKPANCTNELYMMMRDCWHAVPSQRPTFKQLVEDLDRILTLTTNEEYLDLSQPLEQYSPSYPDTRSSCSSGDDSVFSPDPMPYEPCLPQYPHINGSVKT

Row | Molecule | FGFR2 Kinase % Inhibition
1 | Palm-Lys-Ala-Asn-Leu-Pro-Leu-Gly-Asn-Tyr-Lys-Lys-Pro-NH2 (Palmitoyl-KANLPLGNYKKP-NH2; SMILES CCCCCCCCCCCCCCCC(=O)N[C@@H](CCCCN)C(=O)N[C@@H](C)C(=O)N[C@@H](CC(N)=O)C(=O)N[C@@H](CC(C)C)C(=O)N1CCC[C@H]1C(=O)N[C@@H](CC(C)C)C(=O)NCC(=O)N[C@@H](CC(N)=O)C(=O)N[C@@H](Cc1ccc(O)cc1)C(=O)N[C@@H](CCCCN)C(=O)N[C@@H](CCCCN)C(=O)N1CCC[C@H]1C(N)=O) [Peptide 2] | 96.3%
2 | Palm-Lys-Phe-Ala-Leu-Pro-Leu-Gly-Asn-Tyr-Lys-Lys-Pro-NH2 (Palmitoyl-KFALPLGNYKKP-NH2; SMILES CCCCCCCCCCCCCCCC(=O)N[C@@H](CCCCN)C(=O)N[C@@H](Cc1ccccc1)C(=O)N[C@@H](C)C(=O)N[C@@H](CC(C)C)C(=O)N1CCC[C@H]1C(=O)N[C@@H](CC(C)C)C(=O)NCC(=O)N[C@@H](CC(N)=O)C(=O)N[C@@H](Cc1ccc(O)cc1)C(=O)N[C@@H](CCCCN)C(=O)N[C@@H](CCCCN)C(=O)N1CCC[C@H]1C(N)=O) [Peptide 3] | 98.7%

The molecules below were run against human FGFR1 kinase (human, UniProt P11362 398-822, limits assumed) (assay: cell-based or functional assay). Conditions: not given.
Sequence of human FGFR1 kinase (P11362 398-822 limits assumed): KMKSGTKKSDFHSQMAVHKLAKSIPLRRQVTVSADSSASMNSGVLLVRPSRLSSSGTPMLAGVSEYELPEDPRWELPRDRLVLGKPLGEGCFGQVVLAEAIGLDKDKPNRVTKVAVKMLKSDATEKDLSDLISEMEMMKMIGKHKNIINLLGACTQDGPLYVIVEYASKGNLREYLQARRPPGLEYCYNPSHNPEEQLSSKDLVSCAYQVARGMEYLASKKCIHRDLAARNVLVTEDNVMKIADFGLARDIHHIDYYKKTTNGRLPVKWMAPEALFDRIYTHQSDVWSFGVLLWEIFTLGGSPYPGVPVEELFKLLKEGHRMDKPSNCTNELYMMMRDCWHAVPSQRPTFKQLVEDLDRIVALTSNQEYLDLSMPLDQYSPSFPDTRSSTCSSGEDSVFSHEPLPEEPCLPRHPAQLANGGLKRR

Row | Molecule | FGFR1 Kinase % Inhibition
3 | B1 | 0%
4 | B2 | 85%
5 | B3 | 0%
6 | B4 | 0%
7 | B5 | 92.7%
8 | B6 | 0%
9 | B7 | 0%
10 | B8 | 15.7%
11 | B9 | 0%
12 | B10 | 0%
13 | B11 | 0%
14 | B12 | 0%

These molecules were tested against FGFR3 Kinase (UniProt P22607 436-806) (assay: cell-based or functional assay). Conditions: not given.
Sequence of FGFR3 Kinase (P22607 436-806 limits assumed): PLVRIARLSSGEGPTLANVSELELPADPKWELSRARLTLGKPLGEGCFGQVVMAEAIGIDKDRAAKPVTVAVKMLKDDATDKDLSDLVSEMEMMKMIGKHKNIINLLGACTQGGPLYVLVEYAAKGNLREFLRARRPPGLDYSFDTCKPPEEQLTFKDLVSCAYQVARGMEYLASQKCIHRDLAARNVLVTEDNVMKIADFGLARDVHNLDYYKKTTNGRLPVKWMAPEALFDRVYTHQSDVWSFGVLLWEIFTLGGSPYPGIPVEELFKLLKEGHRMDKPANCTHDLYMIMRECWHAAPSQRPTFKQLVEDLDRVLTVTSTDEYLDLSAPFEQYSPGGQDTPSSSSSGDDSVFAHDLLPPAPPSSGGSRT

Row | Molecule | FGFR3 Kinase % Inhibition
15 | B1 | 75.8%
16 | B2 | 91.9%
17 | B3 | 60.8%
18 | B4 | 49.6%
19 | B5 | 78.5%
20 | B6 | 72.9%
21 | B7 | 87.9%
22 | B8 | 91.6%
23 | B9 | 0%
24 | B10 | 19.3%
25 | B11 | 46.4%
26 | B12 | 38.8%

These molecules were tested against FGFR4 Kinase (UniProt P22455 460-802, limits assumed) (assay: cell-based or functional assay). Conditions: not given.
Sequence of FGFR4 Kinase (P22455 460-802 limits assumed): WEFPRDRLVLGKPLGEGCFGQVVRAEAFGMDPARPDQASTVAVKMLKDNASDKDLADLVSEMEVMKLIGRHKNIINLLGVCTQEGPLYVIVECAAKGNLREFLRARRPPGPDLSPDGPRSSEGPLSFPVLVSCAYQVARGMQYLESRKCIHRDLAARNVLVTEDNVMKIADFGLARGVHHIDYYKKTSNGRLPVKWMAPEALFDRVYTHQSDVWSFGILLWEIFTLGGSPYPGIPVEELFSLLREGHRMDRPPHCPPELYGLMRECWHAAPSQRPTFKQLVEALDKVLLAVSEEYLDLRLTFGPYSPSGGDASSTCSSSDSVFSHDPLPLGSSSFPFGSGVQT

Row | Molecule | FGFR4 Kinase % Inhibition
27 | B1 | 38.7%
28 | B2 | 65.9%
29 | B3 | 0%
30 | B4 | 0%
31 | B5 | 69.8%
32 | B6 | 67.9%
33 | B7 | 89.5%
34 | B8 | 92.5%
35 | B9 | 0%
36 | B10 | 0%
37 | B11 | 42.3%
38 | B12 | 96.4%
